Patent publication US20200268847A1, “Methods of Treating Newly Diagnosed Multiple Myeloma with a Combination of An Antibody that Specifically Binds CD38, Lenalidomide and Dexamethasone” (Janssen Biotech, Inc., priority 2019, published 2020)

System: patients with newly diagnosed multiple myeloma ineligible for HDC and ASCT
Test: MAIA: safety, adverse events graded by NCI-CTCAE version 4, treatment discontinuations
Description: Safety will be measured by adverse events, laboratory test results, ECGs, vital sign measurements, physical examination findings, and assessment of ECOG performance status score.
Safety analyses included adverse event assessment graded in severity according to NCI-CTCAE version 4, electrocardiograms, clinical laboratory testing, physical examinations, and vital signs.
The safety population included patients who received any dose of trial treatment.

Substance: Daratumumab (DARZALEX®): antibody that specifically binds CD38, heavy chain of SEQ ID NO: 9 and light chain of SEQ ID NO: 10 [reference compound]
- infusion-related reactions occurring during the first dose (% of patients with infusion reactions): 98.0%
- infusion-related reactions (% of patients, any grade): 40.9%
- patients who discontinued daratumumab treatment due to an infusion-related reaction (grade 4 hypertension): one
- infusion-related reactions, grade 3 or 4 events (in vivo): 2.7%
- infusion-related reactions, grade 5 events (in vivo): no grade 5 events were reported
